Data published in article PMC9485241, “Biosynthesis of plant hemostatic dencichine in Escherichia coli” (Nature Communications, 2022).

Tests used:
Assay in all cases: purified protein
NC[C@H](N)C(=O)O = details: oxalyl-CoA made in situ by excess PanE from 1 mM CoA, 1 mM NADP+, 1 mM glyoxylate, 50 mM Tris-HCl pH 7.5, 30 °C
O=C(O)CC(=O)C(=O)O = details: 0.18 mM MnCl2, 100 mM Tris-HCl pH 8.0
purified protein = substrate: O=CC(=O)O; assay type: biochemical, Saccharomyces cerevisiae; details: 2 mM cytochrome c, 100 mM sodium phosphate pH 7.5

Q: LsBAHD (Lathyrus sativus) was tested. Which Km (NC[C@H](N)C(=O)O) did it give?
A: 520 µM

Q: What about the Vmax (NC[C@H](N)C(=O)O) of the same molecule?
A: 2.88 µM/min/mg

Q: What does the source list for Fpoah (Fomitopsis palustris)?
A: Km (O=C(O)CC(=O)C(=O)O): 420 µM; Vmax (O=C(O)CC(=O)C(=O)O): 22.8 µM/min/mg

B1: Scgloxdh (Cyb2p) (Saccharomyces cerevisiae S288C) (protein)
chain: EPKLDMNKQKISPAEVAKHNKPDDCWVVINGYVYDLTRFLPNHPGGQDVIKFNAGKDVTAIFEPLHAPNVIDKYIAPEKKLGPLQGSMPPELVCPPYAPGETKEDIARKEQLKSLLPPLDNIINLYDFEYLASQTLTKQAWAYYSSGANDEVTHRENHNAYHRIFFKPKILVDVRKVDISTDMLGSHVDVPFYVSATALCKLGNPLEGEKDVARGCGQGVTKVPQMISTLASCSPEEIIEAAPSDKQIQWYQLYVNSDRKITDDLVKNVEKLGVKALFVTVDAPSLGQREKDMKLKFSNTKAGPKAMKKTNVEESQGASRALSKFIDPSLTWKDIEELKKKTKLPIVIKGVQRTEDVIKAAEIGVSGVVLSNHGGRQLDFSRAPIEVLAETMPILEQRNLKDKLEVFVDGGVRRGTDVLKALCLGAKGVGLGRPFLYANSCYGRNGVEKAIEILRDEIEMSMRLLGVTSIAELKPDLLDLSTLKARTVGVPNDVLYNEVYEGPTLTEFEDA
Q: How did the Km (purified protein) turn out when B1 was run?
A: 740 µM

Q: And the Vmax (purified protein)?
A: 0.66 µM/min/mg
